Measured values: article PMC8140153, “Fluorescence Fluctuation Spectroscopy enables quantification of potassium channel subunit dynamics and stoichiometry” (Scientific Reports, 2021)

Tests used:
[1] = molecular target: T1, KCNQ1-mCherry (human KCNQ1, C-terminally mCherry-tagged) (human, UniProt P51787 1-676); experiment: Number and Brightness (N&B) analysis of TIRF image sequences; living CHO cells co-transfected with KCNE2-mEGFP and KCNQ1-mCherry; cells with fast micro-diffusion, E2f(Q1) (Dmicro > 0.02 µm^2 s^-1); 37 °C, 5% CO2; GAP-mEGFP as monomeric reference; details: partners not purified
T1 construct: KCNQ1 (Kv7.1) alpha subunit, human; cDNA in a CMV-based expression construct; also called Q1 in E2(Q1); source: CHO cells, co-transfected (Lipofectamine 3000), in living cells; not shown: mCherry, C-terminal, kept
T1 sequence (looked up): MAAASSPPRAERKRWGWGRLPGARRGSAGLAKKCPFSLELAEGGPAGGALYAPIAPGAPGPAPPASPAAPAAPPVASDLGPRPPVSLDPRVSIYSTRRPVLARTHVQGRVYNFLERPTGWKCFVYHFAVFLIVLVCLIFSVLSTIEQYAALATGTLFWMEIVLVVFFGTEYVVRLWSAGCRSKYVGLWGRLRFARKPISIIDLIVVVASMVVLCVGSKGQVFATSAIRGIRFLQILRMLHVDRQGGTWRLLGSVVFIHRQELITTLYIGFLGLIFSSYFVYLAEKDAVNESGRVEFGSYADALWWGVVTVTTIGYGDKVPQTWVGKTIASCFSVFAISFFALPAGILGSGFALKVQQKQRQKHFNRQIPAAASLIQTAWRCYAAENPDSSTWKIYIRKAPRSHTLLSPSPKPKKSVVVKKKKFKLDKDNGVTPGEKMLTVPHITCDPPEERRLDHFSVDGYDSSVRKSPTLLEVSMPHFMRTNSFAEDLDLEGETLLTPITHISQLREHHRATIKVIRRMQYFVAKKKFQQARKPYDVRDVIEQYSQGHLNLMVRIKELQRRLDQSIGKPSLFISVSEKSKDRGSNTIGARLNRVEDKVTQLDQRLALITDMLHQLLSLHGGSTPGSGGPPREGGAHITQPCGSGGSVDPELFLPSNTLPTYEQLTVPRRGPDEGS

[2] = molecular target: the molecule itself; experiment: Number and Brightness (N&B) analysis of TIRF image sequences; living CHO cells transfected with one mEGFP-tagged subunit alone; plasma membrane, 37 °C, 5% CO2; GAP-mEGFP as monomeric reference; oligomerization state corrected for protein maturation and misfolding

stoichiometry N [1]: 4 E2 subunits per KCNQ1-KCNE2 complex
B1: KCNE2-mEGFP (human KCNE2, C-terminally mEGFP-tagged) (natural protein, UniProt Q9Y6J6 1-123, looked up)
chain: MSTLSNFTQTLEDVFRRIFITYMDNWRQNTTAEQEALQAKVDAENFYYVILYLMVMIGMFSFIIVAILVSTVKSKRREHSNDPYHQYIVEDWQEKYKSQILNLEESKATIHENIGAAGFKMSP
notes: KCNE2, human, single transmembrane segment beta subunit; cDNA in a CMV-based expression construct; also called KCNE2 subunit; E2(Q1), E2f(Q1), E2s(Q1) when co-expressed with KCNQ1-mCherry; source: CHO cells, transfected (Lipofectamine 3000), in living cells; not shown: mEGFP, C-terminal, kept
stoichiometry N [2]: 2
